Test results reported in PMC8606595, “Chimeric Antigen Receptor T Cells With Modified Interleukin-13 Preferentially Recognize IL13Rα2 and Suppress Malignant Glioma: A Preclinical Study” (Frontiers in Immunology, 2021).

Molecular target: Human IL13Rα2 (human, UniProt Q14627 27-380)
Assay: SPR; Biacore T200; human IL13Rα1 (2,800 RU) or IL13Rα2 (3,100 RU) amine-coupled to CM5 chips in 10 mM sodium acetate pH 4.5; IL13-Fc proteins injected in twofold serial dilutions at constant flow (30 ml/min as printed); association 180 s, dissociation 600 s; regeneration 10 mM glycine pH 2.0; 1:1 fitting model
Details: both partners purified

Human IL13Rα2, sequence (Q14627 27-380): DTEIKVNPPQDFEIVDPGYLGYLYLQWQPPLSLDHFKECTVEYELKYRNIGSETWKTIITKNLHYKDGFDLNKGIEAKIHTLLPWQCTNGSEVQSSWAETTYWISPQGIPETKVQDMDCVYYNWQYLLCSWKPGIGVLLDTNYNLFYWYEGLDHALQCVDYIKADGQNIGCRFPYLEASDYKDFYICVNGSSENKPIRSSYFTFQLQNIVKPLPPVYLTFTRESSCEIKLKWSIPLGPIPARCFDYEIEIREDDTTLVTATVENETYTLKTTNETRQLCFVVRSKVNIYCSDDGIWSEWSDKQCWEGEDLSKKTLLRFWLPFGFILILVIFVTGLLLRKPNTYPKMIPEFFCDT

B1: YYB-103 IL13 (modified IL13.E13K.R66D.S69D.R109K, antigen binding domain of YYB-103) fused with human Fc (Fc fusion)
chain: SPGPVPPSTALRKLIEELVNITQNQKAPLCNGSMVWSINLTAGMYCAALESLINVSGCSAIEKTQDMLDGFCPHKVSAGQFSSLHVRDTKIEVAQFVKDLLLHLKKLFKEGQFN
modifications: Fused to human Fc (carrier left out; probably dimeric through Fc). Numbering offset +32 is the only one that fits E13, R66, S69 and R109 together. / Amine-coupled to CM5 chip; extracellular domain …
B1 gave a Kd of 7.4 nM, a koff of 1.26e-05 s⁻¹ and a kon of 1670 M⁻¹ s⁻¹.
